Data on 3 proteins can be found in article PMC7385124, “The molecular basis of thioalcohol production in human body odour” (Scientific Reports, 2020).

Holding throughout (test): purified protein, by the assay type
Common to all, as to design: DTNB thiol release, A412, continuous steady-state Michaelis-Menten kinetics of C-S lyase
What all share (conditions): pH 7.8; 37.0 °C

Substrate in data set [1]: CC(C)(CCO)SC[C@H](N)C(=O)O
As to the method:
(§1) In vitro activity assays were performed using an Epoch2 (BioTek) plate reader. Reactions were measured in 96-well plate. A continuous assay, described previously[3] was used to measure 3M3SH. A 200 μL reaction contained […], variable amounts of substrate and 0.4 mM DTNB in 50 mM KPi and 200 mM NaCl, pH 7.8. […] Each reaction was incubated at 37 °C for 30 min. Release of the thiol 3M3SH was measured by reaction with DTNB to form 2-nitro-5-thiobenzoic acid (TNB) which is measured at A412 nm every minute. Background rate of DTNB decomposition was subtracted in each assay. Michaelis–Menten plots were derived from 6 to 8 substrate concentrations using Prism Version 5.01 (GraphPad) to calculate the Kcat and KM. Enzyme concentrations were assumed to be the concentration of PLP-bound enzyme with two active sites per enzyme. Velocity curves for all in vitro kinetics are shown in the supplementary information (Supplementary Information Figures S10–S12). Next, we cloned and overexpressed genes encoding a representative range of PatB-type enzymes, with two MetC proteins as controls (Fig. 2, denoted by coloured dots) and purified the proteins for biochemical analysis.

Substrate in data set [2]: CCCC(C)(CCO)SC[C@H](N)C(=O)O
As to the method: as §1

Substrate in data set [3]: N[C@@H](CCSC[C@H](N)C(=O)O)C(=O)O
As to the method: as §1

B1: BsPatB (Bacillus subtilis subsp. subtilis str. 168) (protein)
chain: MNFDKREERLGTQSVKWDKTGELFGVTDALPMWVADMDFRAPEAITEALKERLDHGIFGYTTPDQKTKDAVCGWMQNRHGWKVNPESITFSPGVVTALSMAVQAFTEPGDQVVVQPPVYTPFYHMVEKNGRHILHNPLLEKDGAYAIDFEDLETKLSDPSVTLFILCNPHNPSGRSWSREDLLKLGELCLEHGVTVVSDEIHSDLMLYGHKHTPFASLSDDFADISVTCAAPSKTFNIAGLQASAIIIPDRLKRAKFSASLQRNGLGGLNAFAVTAIEAAYSKGGPWLDELITYIEKNMNEAEAFLSTELPKVKMMKPDASYLIWLDFSAYGLSDAELQQRMLKKGKVILEPGTKYGPGGEGFMRLNAGCSLATLQDGLRRIKAALS
notes: full length; N-terminal MGGGFA and C-terminal ENLYFQG-His10; expressed in E. coli MC1061; homodimer, PLP on Lys234
By Km is commonly meant the concentration of substrate that gives half-maximal velocity. As a reminder, the kcat is the maximal rate divided by the concentration of active sites. What is called kcat/Km is the turnover number divided by the Michaelis constant. Regarding B1, in data set [1], the Km was 400 µM, the kcat came to 0.945 s⁻¹ and the kcat/Km turned out to be 2360 M⁻¹ s⁻¹. In data set [2], the Km amounted to 380 µM, the kcat is 1.92 s⁻¹ and the kcat/Km stood at 5110 M⁻¹ s⁻¹. Besides, in data set [3], the Km amounted to 660 µM, the kcat stood at 0.55 s⁻¹ and the kcat/Km came out at 839 M⁻¹ s⁻¹.

B2: EcMalY (Escherichia coli K-12) (protein)
chain: MFDFSKVVDRHGTWCTQWDYVADRFGTADLLPFTISDMDFATAPCIIEALNQRLMHGVFGYSRWKNDEFLAAIAHWFSTQHYTAIDSQTVVYGPSVIYMVSELIRQWSETGEGVVIHTPAYDAFYKAIEGNQRTVMPVALEKQADGWFCDMGKLEAVLAKPECKIMLLCSPQNPTGKVWTCDELEIMADLCERHGVRVISDEIHMDMVWGEQPHIPWSNVARGDWALLTSGSKSFNIPALTGAYGIIENSSSRDAYLSALKGRDGLSSPSVLALTAHIAAYQQGAPWLDALRIYLKDNLTYIADKMNAAFPELNWQIPQSTYLAWLDLRPLNIDDNALQKALIEQEKVAIMPGYTYGEEGRGFVRLNAGCPRSKLEKGVAGLINAIRAVR
notes: full length; N-terminal MGGGFA and C-terminal ENLYFQG-His10; expressed in E. coli MC1061
Turning to B2, in data set [2], the Km turned out to be 17490 µM, the kcat was determined as 4.4 s⁻¹ and the kcat/Km is 252 M⁻¹ s⁻¹. Moreover, in data set [3], the Km amounted to 2200 µM, the kcat was found to be 7.63 s⁻¹ and the catalytic efficiency (kcat/Km) is 3470 M⁻¹ s⁻¹.

B3: CjAecD (Corynebacterium jeikeium K411) (protein)
chain: MNATTQNNNLENTQNTCPQDSAVSVPGLATLRARGTMKWTVYDEDVLPLWVAETDFDTCPAVKQAIQSGVDREYFGYERRNQSVEKALAGFLDRRFGWQIEPTWVRLVPDVVKGVATAIDELTPQGSDVIVPVPSYHPFFDVPSAVKRPKVEVEMTKVKKNGAEEWAFDYAALEAAFASTDNPAGVGAMIVCNPYNPLGRAWRPEELAKLVELAAKYNVRLISDEIHAPVVYAPHKHTPLATLSETAARVTVTVLATSKGWNTAGLHCAQMIFTNPDDRAAMAKVSPLRTGSASTLGQVAAEAAYTDGEAWLDSELEYLEGNLDLLERRLPEVLPGAKFIRPEASFLLWVDLSEVPGLADNPGQKLLEGARVAFNEGTMFGAQGAGHVRINFGTSREILNEALDRIAEFAKEHANN
notes: full length; expressed in E. coli MC1061
As to B3, in data set [1], the Km was 800 µM, the kcat was determined as 2.65 s⁻¹ and the kcat/Km worked out at 3160 M⁻¹ s⁻¹. Also, in data set [2], the Km was found to be 740 µM, the kcat turned out to be 1.71 s⁻¹ and the kcat/Km was 2300 M⁻¹ s⁻¹. In data set [3], the Km stood at 210 µM, the kcat is 1.18 s⁻¹ and the kcat/Km is 5520 M⁻¹ s⁻¹.
